Molecular target: Kss1-7m3-GBD (Kss1-7m3 fused to the Gal4 DNA-binding domain) (S. cerevisiae) (UniProt P14681)
Assay: two-hybrid

Chain of Kss1-7m3-GBD (Kss1-7m3 fused to the Gal4 DNA-binding domain) (S. cerevisiae) (P14681 whole entry, the tested form may be a part): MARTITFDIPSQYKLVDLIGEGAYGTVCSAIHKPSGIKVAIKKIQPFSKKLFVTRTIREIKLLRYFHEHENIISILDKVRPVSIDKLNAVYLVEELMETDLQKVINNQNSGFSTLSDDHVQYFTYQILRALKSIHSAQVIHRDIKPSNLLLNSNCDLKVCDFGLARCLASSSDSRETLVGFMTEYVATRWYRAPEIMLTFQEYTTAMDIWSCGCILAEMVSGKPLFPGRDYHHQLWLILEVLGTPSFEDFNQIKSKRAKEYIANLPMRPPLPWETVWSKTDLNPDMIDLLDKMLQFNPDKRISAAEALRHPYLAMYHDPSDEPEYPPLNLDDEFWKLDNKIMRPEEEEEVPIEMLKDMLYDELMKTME

B1: Ste12-GAD (Ste12 fused to the Gal4 transcriptional activation domain) (natural protein)
chain: MKVQITNSRTEEILKVQANNENDEVSKATPGEVEESLRLIGDLKFFLATAPVNWQENQIIRRYYLNSGQGFVSCVFWNNLYYITGTDIVKCCLYRMQKFGREVVQKKKFEEGIFSDLRNLKCGIDATLEQPKSEFLSFLFRNMCLKTQKKQKVFFWFSVAHDKLFADALERDLKRESLNQPSTTKPVNEPALSFSYDSSSDKPLYDQLLQHLDSRRPSSTTKSDNSPPKLESENFKDNELVTVTNQPLLGVGLMDDDAPESPSQINDFIPQKLIIEPNTLELNGLTEETPHDLPKNTAKGRDEEDFPLDYFPVSVEYPTEENAFDPFPPQAFTPAAPSMPISYDNVNERDSMPVNSLLNRYPYQLSVAPTFPVPPSSSRQHFMTNRDFYSSNNNKEKLVSPSDPTSYMKYDEPVMDFDESRPNENCTNAKSHNSGQQTKQHQLYSNNFQQSYPNGMVPGYYPKMPYNPMGGDPLLDQAFYGADDFFFPPEGCDNNMLYPQTATSWNVLPPQAMQPAPTYVGRPYTPNYRSTPGSAMFPYMQSSNSMQWNTAVSPYSSRAPSTTAKNYPPSTFYSQNINQYPRRRTVGMKSSQGNVPTGNKQSVGKSAKISKPLHIKTSAYQKQYKINLETKARPSAGDEDSAHPDKNKEISMPTPDSNTLVVQSEEGGAHSLEVDTNRRSDKNLPDAT
fold above background (two-hybrid reporter): 6 fold
